The subject of this data set is Escherichia coli TOP10. In words: shrunken log2 fold change of peptide-encoding DNA abundance (4.5 h post-induction vs induction); higher = less antimicrobial activity (less host growth inhibition). The settings on record: time post-induction: 4.5 h; library: site-saturation at positions 5, 18, 19, 20.

The record followed here is the supplement of paper PMC9112550, “Optimization of the antimicrobial peptide Bac7 by deep mutational scanning” (BMC Biology, 2022).
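Note: peptides expressed intracellularly from a pBAD plasmid library in pooled LB shake-flask culture, induced with 0.3% L-arabinose, DNA abundance read by NGS, three biological replicates, DESeq2 with apeglm shrinkage.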

As for RRIRCRPPRLPRPRPRPTGWPRP, the “shrunken log2 fold change” value was determined as 0.314.
For RRIRERPPRLPRPRPRPMVGPRP the value was 0.17; for RRIRFRPPRLPRPRPRPYWKPRP, -0.0922.
RRIRWRPPRLPRPRPRPTTNPRP: the “shrunken log2 fold change” value stood at 0.217.
With RRIRWRPPRLPRPRPRPQCSPRP the figure was 0.221.
For RRIRLRPPRLPRPRPRPWNKPRP the value was -0.436; for RRIRMRPPRLPRPRPRPMWSPRP, -0.027; for RRIRDRPPRLPRPRPRPHRRPRP, -0.247.
With RRIRIRPPRLPRPRPRPCHDPRP the figure was -0.223; with RRIRHRPPRLPRPRPRPRWQPRP, 0.176.
Turning to RRIRGRPPRLPRPRPRPGDVPRP, the “shrunken log2 fold change” value stood at 0.347.
For RRIRVRPPRLPRPRPRPQGEPRP the value was -0.227; for RRIRHRPPRLPRPRPRPPETPRP, 0.0733.
For RRIRNRPPRLPRPRPRPLFPPRP the value was 0.643.
With RRIRVRPPRLPRPRPRPIAYPRP the figure was -0.184.
With RRIRCRPPRLPRPRPRPEFYPRP, the “shrunken log2 fold change” value is -0.356.
With RRIRARPPRLPRPRPRPGFEPRP the figure was 0.735; with RRIRKRPPRLPRPRPRPESTPRP, 1.38; with RRIRKRPPRLPRPRPRPYKMPRP, -0.47.
For RRIRFRPPRLPRPRPRPAGWPRP the value was 0.674; for RRIRGRPPRLPRPRPRPPKSPRP, 0.616; for RRIRDRPPRLPRPRPRPFTMPRP, -0.0235.
For RRIRRRPPRLPRPRPRPFEFPRP the value was 0.117; for RRIRPRPPRLPRPRPRPTGPPRP, 0.212.
On to RRIRDRPPRLPRPRPRPHIKPRP, for which the “shrunken log2 fold change” value was -0.598.
For the sequence RRIRQRPPRLPRPRPRPKITPRP, the “shrunken log2 fold change” value is -0.0282.
With RRIRFRPPRLPRPRPRPITEPRP the figure was -0.0279; with RRIRFRPPRLPRPRPRPYQLPRP, -0.573; with RRIRCRPPRLPRPRPRPHYMPRP, -0.308.
With RRIRRRPPRLPRPRPRPSTCPRP the figure was 0.0254.
As to RRIRNRPPRLPRPRPRPYNAPRP, the “shrunken log2 fold change” value was -1.54.
In the case of RRIRPRPPRLPRPRPRPLPGPRP, the “shrunken log2 fold change” value came to 0.02.
With RRIRNRPPRLPRPRPRPYKCPRP the figure was -0.13; with RRIRCRPPRLPRPRPRPIDYPRP, -0.651; with RRIRSRPPRLPRPRPRPTRYPRP, -0.198.
As for RRIRWRPPRLPRPRPRPPKCPRP, the “shrunken log2 fold change” value came out at 0.156.
Turning to RRIRNRPPRLPRPRPRPKMVPRP, the “shrunken log2 fold change” value is -0.13.
For RRIRNRPPRLPRPRPRPDHHPRP the value was 0.109.
For RRIRERPPRLPRPRPRPHMNPRP the value was -0.337.
With RRIRSRPPRLPRPRPRPSCEPRP the figure was -0.0887; with RRIRQRPPRLPRPRPRPFYCPRP, -0.314.
On to RRIRARPPRLPRPRPRPLIFPRP, for which the “shrunken log2 fold change” value was determined as 0.000397.
For RRIRARPPRLPRPRPRPLQDPRP the value was 0.25.
For RRIRDRPPRLPRPRPRPGHFPRP the value was 0.0123.
For the sequence RRIRERPPRLPRPRPRPDRSPRP, the “shrunken log2 fold change” value was -0.0225.
For RRIRHRPPRLPRPRPRPVFGPRP the value was 0.0859; for RRIRTRPPRLPRPRPRPHRVPRP, 0.0498.
With RRIRCRPPRLPRPRPRPEVNPRP the figure was -0.00709; with RRIRHRPPRLPRPRPRPSQMPRP, 0.0205; with RRIRVRPPRLPRPRPRPWAWPRP, -0.00558.
Take RRIRERPPRLPRPRPRPYVKPRP: the “shrunken log2 fold change” value is 0.04.
RRIRKRPPRLPRPRPRPEHIPRP: the “shrunken log2 fold change” value was determined as 0.0147.
With RRIRTRPPRLPRPRPRPGISPRP the figure was 0.0832.
Regarding RRIRRRPPRLPRPRPRPMKDPRP, the “shrunken log2 fold change” value turned out to be 0.19.
For RRIRGRPPRLPRPRPRPLTGPRP the value was 0.71.
With RRIRKRPPRLPRPRPRPQKAPRP the figure was -0.0155.
For RRIRTRPPRLPRPRPRPNVIPRP the value was -0.372; for RRIRNRPPRLPRPRPRPEINPRP, 0.0636; for RRIRYRPPRLPRPRPRPGGPPRP, 0.106.
In the case of RRIRMRPPRLPRPRPRPSILPRP, the “shrunken log2 fold change” value was 0.0568.
As for RRIRKRPPRLPRPRPRPNLDPRP, the “shrunken log2 fold change” value was -0.0443.
For RRIRGRPPRLPRPRPRPEPCPRP the value was 0.795; for RRIRSRPPRLPRPRPRPMAMPRP, 0.0808.
For RRIRWRPPRLPRPRPRPPTWPRP the value was 0.802; for RRIRCRPPRLPRPRPRPKFMPRP, -0.527; for RRIRERPPRLPRPRPRPSCKPRP, -0.277.
For the sequence RRIRYRPPRLPRPRPRPLEFPRP, the “shrunken log2 fold change” value is -0.89.
For RRIRHRPPRLPRPRPRPLEPPRP the value was -0.55; for RRIRERPPRLPRPRPRPKCPPRP, 0.0136; for RRIRCRPPRLPRPRPRPTCDPRP, 0.187.
With RRIRFRPPRLPRPRPRPLGFPRP the figure was -0.146; with RRIRYRPPRLPRPRPRPMRCPRP, -0.000627; with RRIRTRPPRLPRPRPRPHYKPRP, -0.531.
With RRIRIRPPRLPRPRPRPLNQPRP the figure was -0.195.
Turning to RRIRFRPPRLPRPRPRPDNHPRP, the “shrunken log2 fold change” value is -0.232.
For RRIRARPPRLPRPRPRPLSDPRP the value was 0.248.
With RRIRGRPPRLPRPRPRPIGMPRP the figure was 0.244.
With RRIRPRPPRLPRPRPRPHPQPRP, the “shrunken log2 fold change” value was 0.238.
With RRIRERPPRLPRPRPRPFKNPRP the figure was -0.174; with RRIRYRPPRLPRPRPRPGRYPRP, -0.912.
With RRIRSRPPRLPRPRPRPCKVPRP the figure was -0.265.
With RRIRPRPPRLPRPRPRPCRWPRP the figure was 0.0987; with RRIRYRPPRLPRPRPRPFQCPRP, -0.157.
In the case of RRIRIRPPRLPRPRPRPWLTPRP, the “shrunken log2 fold change” value is -0.096.
With RRIRCRPPRLPRPRPRPWKFPRP the figure was -0.318; with RRIRERPPRLPRPRPRPSYAPRP, -0.176; with RRIRMRPPRLPRPRPRPHRLPRP, 0.108.
With RRIRWRPPRLPRPRPRPWWFPRP the figure was 0.0217; with RRIRGRPPRLPRPRPRPNGAPRP, 0.827; with RRIRFRPPRLPRPRPRPEKDPRP, -0.227.
Consider RRIRCRPPRLPRPRPRPAWYPRP, for which the “shrunken log2 fold change” value is -0.0055.
For RRIRWRPPRLPRPRPRPFWQPRP the value was -0.00499; for RRIRSRPPRLPRPRPRPCCNPRP, -0.0171.
With RRIRERPPRLPRPRPRPTTNPRP the figure was -0.185.
On to RRIRCRPPRLPRPRPRPEEVPRP, for which the “shrunken log2 fold change” value was 0.362.
For RRIRNRPPRLPRPRPRPQQNPRP the value was 0.00594; for RRIRWRPPRLPRPRPRPGAVPRP, 0.745.
For RRIRHRPPRLPRPRPRPFFRPRP the value was -0.0964.
For the sequence RRIRWRPPRLPRPRPRPKYMPRP, the “shrunken log2 fold change” value is -0.501.
For RRIRGRPPRLPRPRPRPFCDPRP the value was 0.456; for RRIRRRPPRLPRPRPRPQSMPRP, 0.0695.
In the case of RRIRMRPPRLPRPRPRPTKHPRP, the “shrunken log2 fold change” value amounted to 0.17.
For the sequence RRIRVRPPRLPRPRPRPFTVPRP, the “shrunken log2 fold change” value was -0.105.
In the case of RRIRFRPPRLPRPRPRPLLKPRP, the “shrunken log2 fold change” value was -0.321.
For RRIRFRPPRLPRPRPRPEDHPRP the value was 0.000834; for RRIRNRPPRLPRPRPRPSETPRP, -0.083.
Consider RRIRNRPPRLPRPRPRPNMFPRP, for which the “shrunken log2 fold change” value is -0.00614.
With RRIRKRPPRLPRPRPRPAFSPRP the figure was -0.0331; with RRIRVRPPRLPRPRPRPHEHPRP, -0.0873; with RRIRMRPPRLPRPRPRPIEIPRP, -0.0115.
For RRIRERPPRLPRPRPRPCIKPRP the value was -0.363; for RRIRQRPPRLPRPRPRPYKCPRP, -0.334; for RRIRVRPPRLPRPRPRPRGSPRP, 0.527.
With RRIRQRPPRLPRPRPRPTQTPRP the figure was -0.00783; with RRIRQRPPRLPRPRPRPCMTPRP, 0.0109.
On to RRIRGRPPRLPRPRPRPSEIPRP, for which the “shrunken log2 fold change” value was -0.193.
On to RRIRRRPPRLPRPRPRPGLGPRP, for which the “shrunken log2 fold change” value worked out at 0.55.
For RRIRYRPPRLPRPRPRPVQKPRP the value was 0.0112; for RRIRRRPPRLPRPRPRPDNQPRP, 0.0853; for RRIRSRPPRLPRPRPRPMPGPRP, -0.102.
With RRIRWRPPRLPRPRPRPKGCPRP the figure was -0.00617.
For RRIRWRPPRLPRPRPRPFWNPRP the value was -0.175; for RRIRRRPPRLPRPRPRPMWPPRP, 0.265; for RRIRWRPPRLPRPRPRPHLDPRP, -0.0108.
In the case of RRIRMRPPRLPRPRPRPHYTPRP, the “shrunken log2 fold change” value was -0.399.
